Reference: patent publication US20220064326A1

Molecular target: recombinant EGFR-Fc (AcroBiosystems) (human) (UniProt P00533)
Assay: BLI (Octet QK), biotinylated binder on streptavidin sensor, EGFR-Fc 0-100 nM, 1:1 global fit

Kd: 3.2 nM
Substance: AFF.EGFR (Z domain-based EGFR-binding affibody ZEGFR:1907) (designed binder)
